From patent US20230167188A1 (BIOLOJIC DESIGN, published 2023)

The binders below were run against T1, recombinant human TNFR2 with 6×his tag (human, UniProt P20333 23-257, limits assumed) (assay: ELISA, IgG coated, hTNFR2-His titrated, anti-His-HRP).
T1 construct: Bought (Reprokine, Israel); also called TNFR2-His; hTNFR2-His; not shown: 6xHis tag
T1 sequence (looked up): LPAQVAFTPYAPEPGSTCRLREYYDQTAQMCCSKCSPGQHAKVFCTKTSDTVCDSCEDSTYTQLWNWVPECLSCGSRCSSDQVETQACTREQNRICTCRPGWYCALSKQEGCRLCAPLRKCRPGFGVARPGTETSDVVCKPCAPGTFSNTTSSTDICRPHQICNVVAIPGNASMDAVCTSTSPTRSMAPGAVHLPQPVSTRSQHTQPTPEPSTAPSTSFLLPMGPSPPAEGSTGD
Method: (§1) IgG binding affinity to TNFR2 was examined by ELISA. 96 well plates (Greiner Bio-One high binding) were coated with (50 ng/well) of the analyzed antibody and incubated overnight at 4° C. The plates were then washed three times with 300 μl PBS buffer containing 0.05% Tween 20 (PBS-T), blocked with 300μ PBS-T supplemented with 1% to 2% BSA, and incubated for 1 hour at room temperature. Antibodies-coated plates were washed three times with 300 μl PBS-T and incubated with serial dilutions of test ligand hTNFR2-His (Reprokine, Israel) in a final volume of […] for 1-2 hours. Plates were then washed three times with 300 μl PBS-T and incubated with 50 μl anti-HIS-HRP (Santa Cruz Biotechnology, USA, SC-8036HRP) conjugate that was diluted 1:250 in PBS. After an additional wash step of six washes, the reaction was developed with […] tetramethylbenzidine (TMB) reagent (Southern biotech, USA), and stopped with […] 0.5N H₂SO₄. Detection was done on a Synergy LX BioTek (BioTek, USA) plate reader with an absorbance filter set to […]. The binding affinity was determined by fitting the data to a specific binding non-linear regression model on Prisma 8 GraphPad software.
(§2) To test binding affinity of clones reformatted as IgG1 and IgG1LALA to TNFR2, an ELISA EC₅₀ binding experiment was conducted for each antibody.

| Binder | EC50 [nM] |
| --- | --- |
| BDG30.080 (antibody, human IgG1, kappa, V domains shown, Human IgG1; also called IgG of CID_229) VH: EVQLVESGGGLVQPGGSLRLSCAASGFNIRAMYIHWVRQSPGKGLEWVADIDPTNGDTRYADSVKGRFTISADTSKNTAYLQMNSLRAEDTAIYYCTREGQDGYNAFDKWGQGTLVTVSS VL: DIQMTQSPILLSASVGDRVTITCRASQDVSTAVAWSQQRTNGSPRLLIYSASSLYSGVPSRFSGSRSGTDFTLTISSLQPEDIADYYCQQHRYTPPTFGAGTKVEIKR | 66.3 |

Each binder was assayed against T1, recombinant human TNFR2 with 6×his tag (assay: ELISA, IgG coated, soluble TNFR2-His titrated).
Method: as §1, §2

| Binder | EC50 [nM] |
| --- | --- |
| BDG30.080 (antibody, human IgG1, kappa, V domains shown, Human IgG1; also called IgG of CID_229) VH: EVQLVESGGGLVQPGGSLRLSCAASGFNIRAMYIHWVRQSPGKGLEWVADIDPTNGDTRYADSVKGRFTISADTSKNTAYLQMNSLRAEDTAIYYCTREGQDGYNAFDKWGQGTLVTVSS VL: DIQMTQSPILLSASVGDRVTITCRASQDVSTAVAWSQQRTNGSPRLLIYSASSLYSGVPSRFSGSRSGTDFTLTISSLQPEDIADYYCQQHRYTPPTFGAGTKVEIKR | 66 |

Each binder was assayed against T1, recombinant human TNFR2 with 6×his tag (assay: yeast surface display, TNFR2-His titrated, flow cytometry MFI).
Method: To determine the effective concentration₅₀ (EC₅₀) of TNFR2 binding to yeast scFv or Fab clones (EC₅₀— TNFR2 binding), specific clones were labeled at TNFR concentrations ranging from 0.1 nM to 1000 nM and analyzed on an FACS. Median fluorescence intensity (MFI) was determined for each TNFR2 concentration and EC₅₀ (TNFR2 binding) was calculated using Prisma 8 GraphPad (GraphPad, San Diego, USA) software.

| Binder | EC50 [nM] |
| --- | --- |
| CID_323 (scFv) scFv: EVQLVQSGPELKKPGASVKVSCKASGYTFTDLGMNWVRQAPGQGLEWMGWINTHTGMPFYADDFKGRFVFSLDTSVSTAYLQISSLKAEDTAVYYCARDHPLGLDYWGQGTLVTVSSDIQVTQSPSSLSASVGDRVTITCITSQSVDVNGVSYLNWYQQKPGKVPKFLIYKASNLRPGVPSRFSGSGSGTDFTLTISSLQPEDVATYYCQQSREDPYTFGQGTKVEIK | 5.2 |
| CID_325 (scFv) scFv: EVQLVQSGPELKKPGASVKVSCKASGYTFTDLGIGWVRQAPGQGLEWMGWINTHTGEPFYADDFKGRFVFSLDTSVSTAYLQISSLKAEDTAVYYCTRDHPLGLDYWGQGTLVTVSSDIQVTQSPSSLSASVGDRVTITCITSQSVDVNGLSYLNWYQQKPGKVTKFLIYKASNLGSGVPSRFSGSGSGTDFTLTISSLQPEDVATYYCQQSREDPYTFGQGTKVEIK | 2.9 |
| CID_326 (scFv) scFv: EVQLVQSGPELKKPGASVKVSCKASGYTFTDLGMNWVRQAPGQGLEWMGWINTHTGKPFYADDFKGRFVFSLDTSVSTAYLQISSLKAEDTAVYYCTRDHPLGLDYWGQGTLVTVSSDIQVTQSPSSLSASVGDRVTITCITSQSVDVNGVSYLNWYQQKPGKVPKFLIYKASNLRSGVPSRFSGSGSGTDFTLTISSLQPEDVATYYCQQSREDPYTFGQGTKVEIK | 6 |
| CID_327 (scFv) scFv: EVQLVQSGPELKKPGASVKVSCKGSGYTFTDLGMGWVRQAPGQGLEWMGWINTQTGEPFYADDFKGRFVFSLDTSVSTAYLQISSLKAEDTAVYYCTRDHPLGLDYWGQGTLVTVSSDIQVTQSPSSLSASVGDRVTITCITSQSVDVAGVSYLNWYQQKPGKVPKFLIHKASNLRSGVPSRFSGSGSGTDFTLTISSLQPEDVATYYCQQAREDPYTFGQGTKVEIK | 4.5 |
| CID_328 (scFv) scFv: EVQLVQSGPELKKPGASVKVSCKGSGYTFTDLGMNWVRQAPGQGLEWMGWINTQTGEPFYADDFKGRFVFSLDTSVSTAYLQISSLKAEDTAVYFCARDHPLGLDYWGQGTLVTVSSDIQVTQSPSSLSASVGDRVTITCITSQSVDVNGVSYLNWYQQKPGKVPKFLIYKASILRSGVPSRFSGSGSGTDFTLTISSLQPEDVATYYCQQSREDPYTFGQGTKVEIK | 5.7 |
| CID_329 (scFv) scFv: EVQLVQSGPELKKPGASVKVSCKGSGYTFTDLGINWVRQAPGQGLEWMGWINTHTGEPFYADDFKGRFVFSLDTSVSTAYLQISSLKAEDTAVYFCTRDHPLGLDYWGQGTLVTVSSDIQVTQSPSSLSASVGDRVTITCITSQSVDVNGVSYLNWYQQKPGKVPKFLIYKASNLRPGVPSRFSGSGSGTDFTLTISSLQPEDVATYYCQQSREDPYTFGQGTKVEIK | 8.6 |
| CID_330 (scFv) scFv: EVQLVQSGPELKKPGASVKVSCKGSGYTFTDLGINWVRQAPGQGLEWMGWINTHTGEPYYADDFKGRFVFSLDTSVSTAYLQISSLKAEDTAVYYCARDHPLGLDYWGQGTLVTVSSDIQVTQSPSSLSASVGDRVTITCITSQSVDVNGVSYMNWYQQKPGKVPKFLIYKAVNLRPGVPSRFSGSGSGTDFTLTISSLQPEDVATYYCQQSREDPYTFGQGTKVEIK | 17.7 |
| CID_436 (scFv) scFv: DIQMTQSPILLSASVGDRVTITCRASQDVSTAVAWSQQRTNGSPRLLIYSASSLYSGVPSRFSGSRSGTDFTLTISSLQPEDIADYYCQQPTYTPPTFGAGTKVEIKEVQLVESGGGLVQPGGSLRLSCAASGFNIRDTYIHWVRQSPGKGLEWVADIDPDNGDTRYADSVKGRFTISADTSKNTAYLQMNSLRAEDTAIYYCSRDLADGYNAFDRWGQGTLVTVSS | 3.4 |
| CID_437 (scFv) scFv: DIQMTQSPILLSASVGDRVTITCRASQDVSTAVAWSQQRTNGSPRLLIYSASSLYSGVPSRFSGSRSGTDFTLTISSLQPEDIADYYCQQPPYTPPTFGAGTKVEIKEVQLVESGGGLVQPGGSLRLSCAASGFNIRDTFIHWVRQSPGKGLEWVADIDPDNGDTRYADSVKGRFTISADTSKNTAYLQMNSLRAEDTAIYYCSREGEDGYNAWDLWGQGTLVTVSS | 1.2 |
| CID_251 (scFv) scFv: EVQLVQSGAEVKKPGSSVKVSCKASGDTFTSYSFNWVRQAPGQGLEWMGRIITILDDTEYAPHLQGRVTITADKSTSTVYLELRNLRSDDTAVYFCAGVYEGPNSEGSYDDYGFLKHWGQGTLVTVSSDIVMTQSPATLSVSPGERATLSCRASESVANDLAWYQQKPGQVPRLLIYGASTRATGVPARFSGSGSGAEFTLTISSLQSEDFAVYYCQQYANWPPRETFGQGTRLEIK | 1 |
